Laboratory results taken from article PMC4860257 (Structure (London, England : 1993), 2016).
Residue numbers refer to the chain shown, from its start. Names may count otherwise.

B1: GST-tagged talin F2F3 domains (residues 196-405) (domain or fragment, UniProt P26039 196-405, looked up)
chain: KFFYSDQNVDSRDPVQLNLLYVQARDDILNGSHPVSFDKACEFAGFQCQIQFGPHNEQKHKAGFLDLKDFLPKEYVKQKGERKIFQAHKNCGQMSEIEAKVRYVKLARSLKTYGVSFFLVKEKMKGKNKLVPRLLGITKECVMRVDEKTKEVIQEWSLTNIKRWAASPKSFTLDFGDYQDGYYSVQTTEGEQIAQLIAGYIDIILKKKKS
B2: His-tagged talin R7R8R9-2Y (E1794Y/E1797Y) (domain or fragment, UniProt P26039 1357-1822, looked up)
chain: APGQKECDNALRQLETVRELLENPVQPINDMSYFGCLDSVMENSKVLGEAMTGISQNAKNGNLPEFGDAIATASKALCGFTEAAAQAAYLVGVSDPNSQAGQQGLVEPTQFARANQAIQMACQSLGEPGCTQAQVLSAATIVAKHTSALCNSCRLASARTANPTAKRQFVQSAKEVANSTANLVKTIKALDGDFTEENRAQCRAATAPLLEAVDNLSAFASNPEFSSVPAQISPEGRAAMEPIVISAKTMLESAGGLIQTARALAVNPRDPPRWSVLAGHSRTVSDSIKKLITSMRDKAPGQLECETAIAALNSCLRDLDQASLAAVSQQLAPREGISQEALHTQMLTAVQEISHLIEPLASAARAEASQLGHKVSQMAQYFEPLTLAAVGAASKTLSHPQQMALLDQTKTLAESALQLLYTAKEAGGNPKQAAHTQYALYEAVQMMTEAVEDLTTTLNEAASAAG
B3: His-tagged talin R7R8R9-3Y (E1794Y/E1797Y/Q1801Y) (domain or fragment, UniProt P26039 1357-1822, looked up)
chain: B2 chain with Q445Y
B4: talin R7R8R9 (residues 1357-1822), wild type, His tag removed, as crystallised (domain or fragment, UniProt P26039 1357-1822, looked up)
chain: B2 chain with Y438E, Y441E
B5: GST-tagged talin R9 domain (residues 1655-1822), wild type (domain or fragment, UniProt P26039 1655-1822, looked up)
chain: APGQLECETAIAALNSCLRDLDQASLAAVSQQLAPREGISQEALHTQMLTAVQEISHLIEPLASAARAEASQLGHKVSQMAQYFEPLTLAAVGAASKTLSHPQQMALLDQTKTLAESALQLLYTAKEAGGNPKQAAHTQEALEEAVQMMTEAVEDLTTTLNEAASAAG
B6: GST-tagged talin R9-T1812Y (domain or fragment, UniProt P26039 1655-1822, looked up)
chain: B5 chain with T158Y
B7: GST-tagged talin R9-3Y (E1794Y/E1797Y/Q1801Y) (domain or fragment, UniProt P26039 1655-1822, looked up)
chain: B5 chain with E140Y, E143Y, Q147Y

Columns and labels:
[1] = target: B3; assay: pull-down
[2] = target: His-tagged talin R7R8R9 (residues 1357-1822), wild type (UniProt P26039 1357-1822); assay: pull-down
[3] = target: B2; assay: pull-down
SEC-MALS = target: the molecule itself; assay: SEC-MALS
crystal structure = target: the molecule itself; assay: crystal structure
[4] = target: His-tagged talin F2F3-KKR (K272A/K274A/R277A) (UniProt P26039 196-405, K272A | K274A | R277A); assay: pull-down
[5] = target: His-tagged talin F2F3-K322A (UniProt P26039 196-405, K322A); assay: pull-down
[6] = target: His-tagged talin F2F3-K324A (UniProt P26039 196-405, K324A); assay: pull-down
[7] = target: His-tagged talin F2F3 domains (residues 196-405), wild type (UniProt P26039 196-405); assay: pull-down

B1: binds [1]; binds [2]; binds [3].

B2 was tested, and the “stoichiometry N” value (SEC-MALS) was 2.

With B3 the “stoichiometry N” value (SEC-MALS) was 2.

B4: binds (crystal structure).

B5: binds [4]; binds [5]; binds [6]. B5: binds [7].

B6: binds [7].

B7: binds [7].
